The chains are these.
B1: G001_gp1_V10_VRC01c_2021-0114 (antibody, V domains shown)
VH: QVQLVQSGAEVKKPGASVKVSCKASGYTFTGYNIHWVRQDPGQGLEWMGWINPNSGGTNYAQKFQDWVTMTRDMSISTAYMELSRLRSDDTAIYYCAAVAGRRGRWAFDIWGQGTMVTVSS
VL: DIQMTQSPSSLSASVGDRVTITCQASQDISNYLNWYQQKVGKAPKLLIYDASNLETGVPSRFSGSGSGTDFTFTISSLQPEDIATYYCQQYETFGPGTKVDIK
B2: G001_gp1_V10_VRC01c_2021-0107 (antibody, V domains shown)
VH: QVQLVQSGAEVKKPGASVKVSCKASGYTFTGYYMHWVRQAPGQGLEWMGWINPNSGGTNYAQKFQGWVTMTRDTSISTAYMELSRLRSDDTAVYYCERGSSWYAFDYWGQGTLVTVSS
VL: DIQMTQSPSSLSASVGDRVTITCRASQSISSYLNWYQQKPGKAPKLLIYAASSLQSGVPSRFSGSGSGTDFTLTISSLQPEDFATYYCQHQGTFGQGTKVEIK
B3: G001_gp1_V10_VRC01c_2021-0096 (antibody, V domains shown)
VH: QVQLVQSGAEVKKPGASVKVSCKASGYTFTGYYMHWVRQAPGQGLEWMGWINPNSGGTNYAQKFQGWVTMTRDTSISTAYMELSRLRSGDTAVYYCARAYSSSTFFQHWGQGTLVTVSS
VL: EIVMTQSPATLSVSPGERATLSCRASQSVSSNLAWYQQKPGQAPRLLIYGASTRATGIPARFSGSGSGTEFTLTISSLQSEDLAVYYCQQYTAFGQGTKVEIK
B4: G001_gp1_V10_VRC01c_2021-0117 (antibody, V domains shown)
VH: QVQLVQSGAEVKKPGASVKVSCKASGYTFTGYYMHWVRQAPGQGLEWMGWINPNSGGTNYAQKFQGWVTMTRDTSISTAYMEVSRLTSDDTAVYYCARGEDNWYSFNYWGQGTLVTVSS
VL: B3 VL with N32K, A51T, L83F, Q90L, T92E, A93T
B5: G001_gp1_V10_VRC01c_2021-0104 (antibody, V domains shown)
VH: QVHLVQSGAEVKKPGASVKVSCKASGYSFTDYYIYWVRQAPGQGLEWMGWINPNSGGTNYAQKFQAWVTMTRDTSISTAYMELNRLTSDDTAVYYCARRTMPTTEFDSWGQGTLVTVSS
VL: EIVLTQSPGTLSLSPGERVTLSCRASQSLSNNYLAWYQQKPGQAPRLLIYGVSNRATGIPDRFRGSGSGTDFTLTISRLEPEDCAVYYCQQYVSFGQGTKLEIK
B6: G001_gp1_V10_VRC01c_2021-0121 (antibody, V domains shown)
VH: QVQLVQSGAEVKKPGASVKVSCKASGYSFTGYYIHWVRQVPGQGLEWMGWINPNSGGTNYAQEFQDWVTMTRDTSISTAYMELSRLRSDDTAVYYCARHKPSSRFYFDYWGQGTLVTVSS
VL: DIQMTQSPSTLSASVGDRVTITCRASQSISSWLAWYQQKPGKAPKFLLMYDASSLESGVPSRFSGSGSGTEFTLTISSLQPDDFATYYCQQYETFGQGTKVEIK
B7: G001_gp1_V10_VRC01c_2021-0120 (antibody, V domains shown)
VH: QVQLVQSGAEVKKPGASVKVSCKASGYTFSGYYMHWVRQAPGQGLEWMGWINPNSGGTNYAQRFQDWVTMTRDTSISTAYMELSRLRSDDTAVYYCARAEYSSAWCFDYWGQGTLVTVSS
VL: DIQMTQSPSSLSASVGDRVTITCQASQDSSKSLNWYQQKPGKAPKLLIYDVSNLETGVPSRFSGSGSGRDFTFTISSLQAEDTATYYCQQYDIFGPGTKVHIK
B8: G001_gp1_V10_VRC01c_2021-0095 (antibody, V domains shown)
VH: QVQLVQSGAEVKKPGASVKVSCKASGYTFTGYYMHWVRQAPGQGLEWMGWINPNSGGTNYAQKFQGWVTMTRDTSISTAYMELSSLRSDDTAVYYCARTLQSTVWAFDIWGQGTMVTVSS
VL: DIQMTQSPSSLSASVGDRVTITCQASQDISNYLNWYQQKPGKAPQLLIYDASNLETGVPSRFSGRGSGTDFTFTISSLQPEDIATYYCQQYDTFGQGTRLEIK
B9: G001_gp1_V10_VRC01c_2021-0100 (antibody, V domains shown)
VH: PVQLVQSGAEVKKPGASVKVSCKASGYTFTGYYIHWVRQAPGQGLEWMGWINPNSGGTNYAQKFQGRVTMTRDTSVSTAYMELSRLRSDDTAVYYCARRLAAASGVFGVRFDPWGQGTLVTVSS
VL: B8 VL with V19I, K39R, Q45K, R65S, T93F, Q96P, R99K, L100V, E101D
B10: G001_gp1_V10_VRC01c_2021-0122 (antibody, V domains shown)
VH: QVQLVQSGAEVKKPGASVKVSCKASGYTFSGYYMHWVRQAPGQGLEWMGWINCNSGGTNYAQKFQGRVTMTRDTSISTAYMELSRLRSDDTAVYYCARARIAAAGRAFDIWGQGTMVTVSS
VL: B8 VL with Q45K, R65S, D92G, R99K
B11: G001_gp1_V10_VRC01c_2021-0109 (antibody, V domains shown)
VH: QVQLVQSGAEVKKPGASVKVSCKASGYSFTGYYMHWVRQAPGQGLEWMGWMNPNSGGTNYAQKFQGWVTMTRDTSISTAYMELSRLRSDDSAVYYCARARSGYSSGWYWAYWGQGTLVTVSS
VL: B8 VL with Q45K, R65S, D92E, T93F, Q96G, R99K, L100V
B12: G001_gp1_V10_VRC01c_2021-0119 (antibody, V domains shown)
VH: QVQLVQSGAEVKRPGASVMVSCKASGYTFTNYYMHWVRQAPGQGLEWMGWINPSSGGTNYAQKFQDWVTMTRDTSISTVYMELNRLRFDDTAVYFCARAQSSGWFLDFWGQGTLVTVSS
VL: DIQMTQSPSSLSASVGDRVTITCQASQGFTKYLNWYQQKLGKAPKLLIYDASNLETGVPSRFSGSASGTDFTFTISSLQPEDIATYYCQQYDLFGGGTKVEIR
B13: G001_gp1_V10_VRC01c_2021-0097 (antibody, V domains shown)
VH: QVQLVQSGAEVKKPGASVKVSCKASGHTFTGYYMHWVRQAPGQGLEWMGWINSNSGGTNYAQKFQGWVTMTRDTSINTVYMELNRLTSDDTAVYYCAGGGRSTYYSWWFDPWGQGTLVTVSS
VL: EIVLTQSPGTLSLSPGERATLSCRASQSVSSSYLAWYQQKPGQAPRLLIYGASSRATGIPDRFSGSGSGTDFTLTISRLEPEDLAVYYCQQWETFGQGTKVEIK
B14: G001_gp1_V10_VRC01c_2021-0098 (antibody, V domains shown)
VH: B13 VH with H27N, T30S, S53P, N77S, V79A, N84S, T87R, G98R, T103A
VL: B13 VL with S53F, L84F
B15: G001_gp1_V10_VRC01c_2021-0110 (antibody, V domains shown)
VH: QVQLVQSGAEVKKPGASVRVSCKASGYTFTGYYMHWVRQAPGQGLEWMGWTNPNSGGTNYAQKFQGWVTMTRDTSISTAYMELSRLRSDDTAVYYCARGEAYSTRYFDLWGRGTLVTVSS
VL: B13 VL with G51D, A52T, L84F, W92Y
B16: G001_gp1_V10_VRC01c_2021-0101 (antibody, V domains shown)
VH: QVHLVQSGAEVKKPGASVKVSCKASGYTFTGYSMHWVRQAPGQGLEWMGWINPNSGGTNYAQKFQGRVTMTRDTSINTGYMELSRLRSDDTAVYYCARPHSNWYFDLWGRGTLVTVSS
VL: B13 VL with S32N, L84F, W92Y
B17: G001_gp1_V10_VRC01c_2021-0106 (antibody, V domains shown)
VH: QVQLVQSGAEVKKPGASVKVSCKASGYTFTDYYIHWVRQAPGQGLEWMGWLNPNSGGTNYAQKFQDWVTMTRDTSINTAYMELSRLRSDDTAVYYCASSLSGYGSFSFDYWGQGTLVTVSS
VL: B13 VL with V29G, S32R, Y33S, S77N, L84S, W92Y, E93D, T94S, V101L
B18: G001_gp1_V10_VRC01c_2021-0112 (antibody, V domains shown)
VH: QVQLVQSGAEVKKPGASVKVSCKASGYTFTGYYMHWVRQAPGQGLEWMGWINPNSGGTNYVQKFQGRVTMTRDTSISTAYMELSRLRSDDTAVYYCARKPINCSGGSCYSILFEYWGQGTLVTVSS
VL: B13 VL with R24W, S30N, S32R, L34V, L84F, W92Y, K100R, V101L
B19: G001_gp1_V10_VRC01c_2021-0115 (antibody, V domains shown)
VH: QVQLVQSGAEVKKPGASVKVSCNASGYTFTGYYMHWVRQAPGQGLEWMGWINPNSGGTNFAQKFQGWVTMTRDTSISTAYMELSRLRSDDTAVYYCARSIVGATIFVYWGQGTLVTVSS
VL: B13 VL with V29L, L84F, W92Y, E93G, T94A, Q97P, E102D
B20: G001_gp1_V10_VRC01c_2021-0108 (antibody, V domains shown)
VH: QVQLVQSGAEVKKPGASVKISCKASGYTFSGYYMHWVRQAPGQGLEWMGWINPNSGGTNYAQKFQDWVTMTRDTSISTVYMELSRLRSDDTAVYYCARDWCSGDTCYSGPTFDYWGQGTLVTVSS
VL: B13 VL with I2S, S32N, L84F, W92Y
B21: G001_gp1_V10_VRC01c_2021-0116 (antibody, V domains shown)
VH: QVQLVQSGAEVKKPGASVKVSCKASGYTFTDYYIHWVRQAPGQGLEWMGWINPNSGGTNYAQKFQGRVTMTRDTSITTAYMELSRLRSDDTAVYYCARICSGGSCYRTTSTFDYWGQGTLVTVSS
VL: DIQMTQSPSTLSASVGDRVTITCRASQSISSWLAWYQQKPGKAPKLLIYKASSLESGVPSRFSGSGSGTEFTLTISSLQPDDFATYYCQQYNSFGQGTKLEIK
B22: G001_gp1_V10_VRC01c_2021-0099 (antibody, V domains shown)
VH: QVQLVQSGAEVKKPGASVKVSCKASGNTFTDYYMYWVRQAPGQGLEWMGWINPNSGGTNYAQKFQGRVTMTRDTSISTAYMELSRLRSDDTAVYYCAGRHYDDSSGYKAFQHWGQGTLVTVSS
VL: DIQMTQSPSTLSASVGDRVTITCRASQSFSSWLAWYQQKPGKAPKLLIYKASSLESGVPSRFSGSGSGTEFTLTISSLQPDDVATYYCQQYETFGQGTKVEIK
B23: G001_gp1_V10_VRC01c_2021-0105 (antibody, V domains shown)
VH: QVQLVQSGAEVKKPGASVKVSCKASGYTFTGYYIHWVRQAPGQGLEWMGWINPNSGGTNYARQFEGWVTMTRDTSISTAYMELRRLRSDDTAMYYCATEDAVVAGTTFDYWGQGTLVTVSS
VL: B22 VL with F29M, E55Q, V83F, E92N, T93S, Q96G
B24: G001_gp1_V10_VRC01c_2021-0123 (antibody, V domains shown)
VH: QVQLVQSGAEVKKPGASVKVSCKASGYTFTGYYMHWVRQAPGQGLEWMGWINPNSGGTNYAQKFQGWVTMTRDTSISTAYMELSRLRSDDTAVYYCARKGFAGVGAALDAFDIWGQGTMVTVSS
VL: B22 VL with F29I, V83F, E92N
B25: G001_gp1_V10_VRC01c_2021-0111 (antibody, V domains shown)
VH: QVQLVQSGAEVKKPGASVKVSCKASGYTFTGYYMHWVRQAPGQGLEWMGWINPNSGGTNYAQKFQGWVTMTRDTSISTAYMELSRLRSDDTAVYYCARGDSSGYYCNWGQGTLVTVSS
VL: B22 VL with F29I, V83F, E92T, Q96G
B26: G001_gp1_V10_VRC01c_2021-0103 (antibody, V domains shown)
VH: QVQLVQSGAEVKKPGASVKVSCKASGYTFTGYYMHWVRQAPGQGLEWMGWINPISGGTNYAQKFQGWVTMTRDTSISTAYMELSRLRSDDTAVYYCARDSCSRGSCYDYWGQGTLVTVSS
VL: QSALTQPRSVSGSPGQSVTISCTGTSSDVGGYNYVSWYQQHPGKAPKLMIYDVSKRPSGVPDRFSGSKSGNTASLTISGLQAEDEADYYCCSYEVFGGGTKLTVL

Substitutions are numbered along the chain they refer to.

The experiment addresses eOD-GT8 (engineered outer domain germline-targeting version 8), monomer (HIV-1 gp120 engineered outer domain, …).
In the case of B1, the binding result was “binds”.

As for B2, the binding result is on record as “binds”. Consider B3, for which the binding result is “binds”. Turning to B4, the binding result is on record as “binds”. To B5 belongs “binds”. As to B6, the binding result is reported as “binds”. With B7, the binding result was “binds”. Take B8: the binding result is on record as “binds”. Take B9: the binding result is “binds”. Under B10 stands “binds”; under B11, “binds”. To B12 belongs “binds”; to B13, “binds”; to B14, “binds”. To B15 belongs “binds”; to B16, “binds”; to B17, “binds”.

B18: the binding result is “binds”. To B19 belongs “binds”; to B20, “binds”. On to B21, for which the binding result is recorded as “binds”. To B22 belongs “binds”; to B23, “binds”. Under B24 stands “binds”. To B25 belongs “binds”. Turning to B26, the binding result is “binds”.

The values are drawn from article PMC12377726 (Proceedings of the National Academy of Sciences of the …, 2025).
